The record followed here is paper PMC2885933 (The EMBO Journal, 2010).

The target in this assay is T1, ORF57-6xHis (Kaposi's sarcoma-associated herpesvirus …, UniProt Q2HR75 1-455).
T1 sequence: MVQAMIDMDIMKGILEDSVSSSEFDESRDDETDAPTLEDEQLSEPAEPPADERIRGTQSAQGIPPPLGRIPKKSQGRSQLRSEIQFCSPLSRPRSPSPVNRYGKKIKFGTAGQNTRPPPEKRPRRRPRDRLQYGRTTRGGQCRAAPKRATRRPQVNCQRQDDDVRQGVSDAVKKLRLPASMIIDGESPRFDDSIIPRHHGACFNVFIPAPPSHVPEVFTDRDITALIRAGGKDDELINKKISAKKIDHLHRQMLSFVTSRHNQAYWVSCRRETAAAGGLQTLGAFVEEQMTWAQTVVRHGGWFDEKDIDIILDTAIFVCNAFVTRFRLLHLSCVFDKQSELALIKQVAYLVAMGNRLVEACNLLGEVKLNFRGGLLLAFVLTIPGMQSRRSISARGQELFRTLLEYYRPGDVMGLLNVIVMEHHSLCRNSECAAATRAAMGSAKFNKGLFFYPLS
Put plainly: pull-down.

B1: GST-PYM (natural protein)
chain: not shown
Turning to B1, the binding result is on record as “binds”.
